One assay concerns RSV F antibody (11A9). Description: Binding of epitope II of RSV F antigen mutants by flow cytometry. The note with it: binding rate, 293T cells 16 h after mRNA-LNP transfection. From the text:
(§1) To investigate whether the RSV F antigen mutants have pre-fusion epitopes, an RSV pre-F antibody (3C12) (specifically binding to the RSV pre-F epitope […]) and an RSV F antibody (11A9) (binding to pre-F and post-F epitopes II) were detected by flow cytometry in this example, and RSV F protein mutants in the pre-F conformation were expected to bind to the antibodies tested.
(§2) • 293T cells (purchased from ATCC cell bank); RSV pre-F antibody (3C12), epitope […] (Novoprotein, Cat. No.: DA101); RSV F antibody (11A9), epitope II (Novoprotein, Cat. No.: DA091); • experimental groups: mRNA vaccines corresponding to the expressed antigens in Example 3;
(§3) • (1) Cell transfection: 293T cells were seeded at 1.3×10^5 cells/well in a 24-well plate. The next day, mRNA-LNP samples (containing 300 ng of mRNA) were added directly to the cells, and the mixture was uniformly mixed. • (2) Cell collection: The cells were taken out of the incubator after 16 h of transfection, the medium was pipetted off, 500 μL of 0.1% BSA solution was pipetted to wash the medium remaining in the well plate, taking care not to resuspend the cells, and the 0.1% BSA solution was pipetted off. 500 μL of 0.1% BSA solution was added to each well, and the cells were pipetted and transferred to a 1.5 mL centrifuge tube. • (3) Centrifugation: The cells were harvested by centrifugation at 400 g for 5 min at 4° C. in the dark, and the supernatant was discarded. • (4) Straining: 50.6 μL of RSV fluorescent antibody diluent was added to each of the control sample and the test samples to resuspend the cells, and the samples were incubated at 4° C. for 2 h in the dark. • (5) Cleaning: After the incubation was completed, 500 μL of 0.1% BSA solution was added to each tube, the cells were harvested by centrifugation at 400 g for 5 min at 4° C. in the dark, and the supernatant was discarded. This operation was repeated three times. • (6) Resuspension of cells: 200 μL of 0.1% BSA solution was added to each sample, and the cells were carefully pipetted to prepare a cell suspension. • (7) Detection on flow cytometer: The […] of RSV F mutants to antibodies were measured using flow cytometry, with 1×10^4 cells detected in each measurement.
(§4) The RSV pre-F antibody (3C12) used in this example specifically binds to the RSV pre-F epitope Φ, and the RSV F antibody (11A9) binds to the pre-F and post-F epitopes II. Whether the pre-fusion conformations of the RSV F mutants are stable can be further determined by detecting the binding of the epitope Φ and the epitope II on the mutants to corresponding epitopes of antibodies 3C12 and 11A9, respectively, by flow cytometry.

The test system of assay [1] is RSV pre-F antibody (3C12). Description: Binding of epitope Φ of RSV F antigen mutants by flow cytometry. The note with it: for RSV pre-F antibody (3C12) Epitope Φ (%): binding rate, flow cytometry, 293T cells 16 h after mRNA-LNP transfection; for Φ/II (%): ratio of epitope Φ (3C12) to epitope II (11A9) binding rate.
From the text: as §1, §2, §3, §4
(In general: In flow cytometry, cells or beads pass a laser one at a time.)

B1: YK-RSV-031 (protein)
chain: QNITEECYQSTCSAVSKGYLGALRTGWYTSVITIELSNIKENKCNGTDAKVKLIKQELDKYKNAVTDLQLLMQSTPATGSGSAIASGVAVSKVLHLEGEVNKIKSALLSTNKAVVSLSNGVSVLTFKVLDLKNYIDKQLLPILNKQSCSIPNIETVIEFQQKNNRLLEITREFSVNAGVTTPVSTYMLTNSELLSLINDMPITNDQKKLMSNNVQIVRQQSYSIMSIIKEEVLAYVVQLPLYGVIDTPCWKLHTSPLCTTNTKEGSNICLTRTDRGWYCDNAGSVSFFPQAETCKVQSNRVFCDTMNSRTLPSEVNLCNVDIFNPKYDCKIMTSKTDVSSSVITSLGAIVSCYGKTKCTASNKNRGIIKTFSNGCDYVSNKGVDTVSVGNTLYYVNKQEGQSLCVKGEPIINFYDPLVFPSDEFDASISQVNEKINQSLAFIRKSDELLHNVNAGKSTTNIMITTIIIVIIVILLSLIAVGLLLY
Turning to B1, the “RSV F antibody (11A9) Epitope II (%)” value in the assay with RSV F antibody (11A9) was 83.4%. Further, in assay [1], the “RSV pre-F antibody (3C12) Epitope Φ (%)” value was found to be 75.5% and the “Φ/II (%)” value is given as 90.5%.

B2: YK-RSV-041 (protein)
chain: QNITEEFYQSTCSAVCKGYLGALRTGWYTSVITIELSNIKENKCNGTDAKVKLIKQELDKYKNAVTDLQLLMQSTPATGSGSAIASGVAVSKVLHLEGEVNKIKSALLSTNKAVVSLSNGVSVLTFKVLDLKNYIDKQLLPILNKQSCSIPNIETVIEFQQKNNRLLEITREFSVNAGVTTPVSTYMLTNSELLSLINDMPITNDQKKLMSNNVQIVRQQSYSIMSIIKEEVLAYVVQLPLYGVIDTPCWKLHTCPLCTTNTKEGSNICLTRTDRGWYCDNAGSVSFFPQAETCKVQSNRVFCDTMNSRTLPSEVNLCNVDIFNPKYDCKIMTSKTDVSSSVITSLGAIVSCYGKTKCTASNKNRGIIKTFSNGCDYVSNKGVDTVSVGNTLYYVNKQEGQSLYVKGEPIINFYDPLVFPSDEFDASISQVNEKINQSLAFIRKSDELLHNVNAGKSTTNIMITTIIIVIIVILLSLIAVGLLLY
As for B2, in the assay on RSV F antibody (11A9), the “RSV F antibody (11A9) Epitope II (%)” value was 81.5%. In assay [1], the “RSV pre-F antibody (3C12) Epitope Φ (%)” value was found to be 73.7% and the “Φ/II (%)” value is 90.4%.

B3: YK-RSV-053 (protein)
chain: QNITEEFYQSTCSAVSKGYLGALRTGWYTSVITIELSNIKENKCNGTDAKVKLIKQELDKYKNAVTDLQLLMQSTPATGSGSAICSGVAVSKVLHLEGEVNKIKSALLSTNKAVVSLSNGVSVLTFKVLDLKNYIDKQLLPILNKQSCSIPNIETVIEFQQKNNRLLEITREFSVNAGVTTPVSTYMLTNSELLSLINDMPITNDQKKLMSNNVQIVRQQSYSIMSIIKEEVLAYVVQLPLCGVIDTPCWKLHTSPLCTTNTKEGSNICLTRTDRGWYCDNAGSVSFFPQAETCKVQSNRVFCDTMNSRTLPSEVNLCNVDIFNPKYDCKIMTSKTDVSSSVITSLGAIVSCYGKTKCTASNKNRGIIKTFSNGCDYVSNKGVDTVSVGNTLYYVNKQEGQSLYVKGEPIINFYDPLVFPSDEFDASISQVNEKINQSLAFIRKSDELLHNVNAGKSTTNIMITTIIIVIIVILLSLIAVGLLLY
For B3, the “RSV F antibody (11A9) Epitope II (%)” value in the assay with RSV F antibody (11A9) amounted to 67.0%. For the same molecule, in assay [1], the “RSV pre-F antibody (3C12) Epitope Φ (%)” value is given as 40.0% and the “Φ/II (%)” value came out at 59.7%.

B4: YK-RSV-033 (protein)
chain: QNITEEFYQSCCSAVSKGYLGALRTGWYTSVITIELSNIKENKCNGTDAKVKLIKQELDKYKNAVTDLQLLMQSTPATGSGSAIASGVAVSKVLHLEGEVNKIKSALLSTNKAVVSLSNGVSVLTFKVLDLKNYIDKQLLPILNKQSCSIPNIETVIEFQQKNNRLLEITREFSVNAGVTTPVSTYMLTNSELLSLINDMPITNDQKKLMSNNVQIVRQQSYSIMSIIKEEVLAYVVQLPLYGVIDTPCWKLHTSPLCTTNTKEGSNICLTRTDRGWYCDNAGSVSFFPQAETCKVQSNRVFCDTMNSRTLPSEVNLCNVDIFNPKYDCKIMTSKTDVSSSVITSLGAIVSCYGKTKCTASNKNRGIIKTFSNGCDYVSNKGVDTVSVGNTLYYVNKQEGQSLYVKCEPIINFYDPLVFPSDEFDASISQVNEKINQSLAFIRKSDELLHNVNAGKSTTNIMITTIIIVIIVILLSLIAVGLLLY
As to B4, in the assay with RSV F antibody (11A9), the “RSV F antibody (11A9) Epitope II (%)” value is 82.4%. In assay [1], the “RSV pre-F antibody (3C12) Epitope Φ (%)” value was determined as 72.0% and the “Φ/II (%)” value was determined as 87.4%.

B5: YK-RSV-042 (protein)
chain: QNITEEFYQSTCSAVSKGCLGALRTGWYTSVITIELSNIKENKCNGTDAKVKLIKQELDKYKNAVTDLQLLMQSTPATGSGSAIASGVAVSKVLHLEGEVNKIKSALLSTNKAVVSLSNGVSVLTFKVLDLKNYIDKQLLPILNKQSCSIPNIETVIEFQQKNNRLLEITREFSVNAGVTTPVSTYMLTNSELLSLINDMPITNDQKKLMSNNVQIVRQQSYSIMSIIKEEVLAYVVQLPLYGVIDTPCWKLHTCPLCTTNTKEGSNICLTRTDRGWYCDNAGSVSFFPQAETCKVQSNRVFCDTMNSRTLPSEVNLCNVDIFNPKYDCKIMTSKTDVSSSVITSLGAIVSCYGKTKCTASNKNRGIIKTFSNGCDYVSNKGVDTVSVGNTLYYVNKQEGQSLYVKGEPIINFYDPLVFPSDEFDASISQVNEKINQSLAFIRKSDELLHNVNAGKSTTNIMITTIIIVIIVILLSLIAVGLLLY
Consider B5, for which, in the assay with RSV F antibody (11A9), the “RSV F antibody (11A9) Epitope II (%)” value was 61.1%. In assay [1], the “RSV pre-F antibody (3C12) Epitope Φ (%)” value is 49.8% and the “Φ/II (%)” value is 81.5%.

Source of the values: patent US12514920B1, “Respiratory syncytial virus mRNA vaccine, and preparation method therefor and use thereof” (Hangzhou Tianlong Pharmaceutical Co., Ltd., priority 2024, dated 2026).
